The values that follow come from patent publication US20150283275A1 (MorphoSys, published 2015).

A word on the EC50: it is the midpoint of the concentration-response curve.

Assay [1] concerns the target T1, Human CD38 (human, UniProt P28907 1-300). The assay can be described thus: cell-based or functional assay.
For assay [2], the target named is T1, Human CD38. The assay can be described thus: cell binding assay, apparently on OPM2 myeloma cells (method cited from Huber et al 2003).

B1: ^213Bi-anti-CD38-MAb (antibody, V domains shown)
VH: QVQLVESGGGLVQPGGSLRLSCAASGFTFSSYYMNWVRQAPGKGLEWVSGISGDPSNTYYADSVKGRFTISRDNSKNTLYLQMNSLRAEDTAVYYCARDLPLVYTGFAYWGQGTLVTVSS
VL: DIELTQPPSVSVAPGQTARISCSGDNLRHYYVYWYQQKPGQAPVLVIYGDSKRPSGIPERFSGSNSGNTATLTISGTQAEDEADYYCQTYTGGASLVFGGGTKLTVLG
B1: in assay [1], the “γH2AX foci per cell (DNA double-strand breaks) 0.5 h after treatment, OPM2 cells compared to ARH77 cells” value was about 2.5 fold.

B2: CHX-A″-DPTA-anti-CD38-MAb (antibody, V domains shown)
VH: B1 VH
VL: B1 VL
notes: Anti-CD38-MAb MOR03087 (= MOR202) covalently coupled to SCN-CHX-A″-DTPA; also called Chelated anti-CD38-MAb; CHX-A″-DTPA conjugate of MOR03087 (MOR202)
Consider B2, for which the EC50 in assay [2] came out at 16.4 nM.
